# Measured values taken from article PMC11861356.
# Target: IRF3 (UniProt Q14653)
# Experiment: co-immunoprecipitation of tagged proteins, immunoblot
# Details: reference: wild-type TBK1; sites Y174
substance,measurement,value
TBK1 (from UniProt Q9UHD2) TBK1 Y174F,binding against the reference,weaker
